{
  "source": "patent US10500249B2",
  "about": "“Compositions and methods for preventing or treating diseases, conditions, or processes characterized by aberrant fibroblast proliferation and extracellular matrix deposition” (MOERAE MATRIX, INC., priority 2014, dated 2019)",
  "experiment_in_all_cases": "Kinase Profiling Assay",
  "type_in_all_cases": "biochemical",
  "settings_in_all_cases": "100 μM",
  "key": {"PKBβ (h)": {"target": "T1, PKBβ (h) (Homo sapiens, UniProt P31751)", "T1 construct": "purchased Millipore", "how_it_was_run": "(§1)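 Scintillation counting quantifies radiolabeled, positively charged substrate retained on a negatively charged filter after kinase reaction with labeled ATP; inhibitor peptide present.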"}, "SAPK2b (h)": {"target": "SAPK2b (h) (Homo sapiens, UniProt Q15759)", "sequence (Q15759 whole entry)": "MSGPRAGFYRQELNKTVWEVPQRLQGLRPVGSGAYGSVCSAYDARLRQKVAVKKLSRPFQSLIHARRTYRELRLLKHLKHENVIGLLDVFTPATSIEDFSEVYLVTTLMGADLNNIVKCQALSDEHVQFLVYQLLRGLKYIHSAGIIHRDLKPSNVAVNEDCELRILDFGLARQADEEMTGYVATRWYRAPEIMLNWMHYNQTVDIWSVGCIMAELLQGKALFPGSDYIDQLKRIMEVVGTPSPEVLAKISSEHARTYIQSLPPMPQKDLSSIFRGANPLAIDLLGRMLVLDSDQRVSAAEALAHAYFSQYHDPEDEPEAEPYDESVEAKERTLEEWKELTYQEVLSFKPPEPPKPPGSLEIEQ", "how_it_was_run": "as §1"}, "CDK2/cyclinA (h)": {"target": "T2, CDK2/cyclinA (h) (Homo sapiens, UniProt P24941)", "T2 construct": "purchased Millipore", "how_it_was_run": "as §1"}, "AMPKα1 (h)": {"target": "AMPKα1 (h) (Homo sapiens, UniProt Q13131)", "sequence (Q13131 whole entry)": "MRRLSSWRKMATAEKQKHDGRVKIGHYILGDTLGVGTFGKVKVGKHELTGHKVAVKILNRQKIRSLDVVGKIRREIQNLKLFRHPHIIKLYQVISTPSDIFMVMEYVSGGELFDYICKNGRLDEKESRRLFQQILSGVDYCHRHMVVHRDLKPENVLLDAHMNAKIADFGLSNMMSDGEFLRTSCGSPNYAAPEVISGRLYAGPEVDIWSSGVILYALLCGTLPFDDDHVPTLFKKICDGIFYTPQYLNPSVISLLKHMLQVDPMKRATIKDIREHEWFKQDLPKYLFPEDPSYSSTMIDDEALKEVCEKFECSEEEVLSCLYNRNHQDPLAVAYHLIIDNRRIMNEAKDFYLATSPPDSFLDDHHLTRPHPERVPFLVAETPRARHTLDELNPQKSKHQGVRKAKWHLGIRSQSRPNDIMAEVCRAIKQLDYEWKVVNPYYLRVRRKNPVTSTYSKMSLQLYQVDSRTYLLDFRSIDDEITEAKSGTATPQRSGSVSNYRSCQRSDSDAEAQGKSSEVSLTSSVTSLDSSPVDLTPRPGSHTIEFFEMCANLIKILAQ", "sequence (Q9Y478 whole entry partner)": "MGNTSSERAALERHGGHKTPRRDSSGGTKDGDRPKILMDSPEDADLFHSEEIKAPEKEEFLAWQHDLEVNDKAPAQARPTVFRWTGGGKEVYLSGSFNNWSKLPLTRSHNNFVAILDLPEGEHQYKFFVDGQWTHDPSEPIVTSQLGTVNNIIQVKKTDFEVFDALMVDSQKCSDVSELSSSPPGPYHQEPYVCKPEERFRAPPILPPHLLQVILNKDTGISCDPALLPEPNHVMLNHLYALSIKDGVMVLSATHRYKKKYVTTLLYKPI", "sequence (P54619 whole entry partner)": "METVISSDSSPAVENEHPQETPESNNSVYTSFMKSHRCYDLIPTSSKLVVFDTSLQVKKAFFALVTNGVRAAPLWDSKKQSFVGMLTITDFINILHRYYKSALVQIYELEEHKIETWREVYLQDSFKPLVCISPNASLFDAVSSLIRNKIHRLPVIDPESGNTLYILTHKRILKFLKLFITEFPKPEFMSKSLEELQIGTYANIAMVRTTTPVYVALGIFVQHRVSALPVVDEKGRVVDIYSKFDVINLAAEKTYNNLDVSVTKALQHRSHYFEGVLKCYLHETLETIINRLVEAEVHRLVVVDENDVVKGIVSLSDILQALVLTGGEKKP", "how_it_was_run": "as §1"}, "ULK3 (h)": {"target": "T3, ULK3 (h) (Homo sapiens, UniProt Q6PHR2)", "T3 sequence (Q6PHR2 1-472)": "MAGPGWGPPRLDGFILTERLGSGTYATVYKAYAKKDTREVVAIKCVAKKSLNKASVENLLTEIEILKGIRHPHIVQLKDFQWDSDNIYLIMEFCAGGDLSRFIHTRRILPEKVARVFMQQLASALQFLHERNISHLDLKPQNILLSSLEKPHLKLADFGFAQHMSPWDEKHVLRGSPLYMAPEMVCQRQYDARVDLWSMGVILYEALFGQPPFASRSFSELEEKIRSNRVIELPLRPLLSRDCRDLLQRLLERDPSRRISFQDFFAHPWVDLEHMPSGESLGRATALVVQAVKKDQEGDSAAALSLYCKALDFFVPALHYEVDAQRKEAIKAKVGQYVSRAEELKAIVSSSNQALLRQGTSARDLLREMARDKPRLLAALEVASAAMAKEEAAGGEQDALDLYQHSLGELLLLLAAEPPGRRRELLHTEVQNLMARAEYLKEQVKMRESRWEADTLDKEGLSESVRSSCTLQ", "how_it_was_run": "as §1"}, "PKBα (h)": {"target": "T4, PKBα (h) (Homo sapiens, UniProt P31749)", "T4 construct": "purchased Millipore", "how_it_was_run": "as §1"}, "IRR (h)": {"target": "T5, IRR (h) (Homo sapiens, UniProt P14616)", "T5 construct": "purchased Millipore", "T5 sequence (P14616 27-1297)": "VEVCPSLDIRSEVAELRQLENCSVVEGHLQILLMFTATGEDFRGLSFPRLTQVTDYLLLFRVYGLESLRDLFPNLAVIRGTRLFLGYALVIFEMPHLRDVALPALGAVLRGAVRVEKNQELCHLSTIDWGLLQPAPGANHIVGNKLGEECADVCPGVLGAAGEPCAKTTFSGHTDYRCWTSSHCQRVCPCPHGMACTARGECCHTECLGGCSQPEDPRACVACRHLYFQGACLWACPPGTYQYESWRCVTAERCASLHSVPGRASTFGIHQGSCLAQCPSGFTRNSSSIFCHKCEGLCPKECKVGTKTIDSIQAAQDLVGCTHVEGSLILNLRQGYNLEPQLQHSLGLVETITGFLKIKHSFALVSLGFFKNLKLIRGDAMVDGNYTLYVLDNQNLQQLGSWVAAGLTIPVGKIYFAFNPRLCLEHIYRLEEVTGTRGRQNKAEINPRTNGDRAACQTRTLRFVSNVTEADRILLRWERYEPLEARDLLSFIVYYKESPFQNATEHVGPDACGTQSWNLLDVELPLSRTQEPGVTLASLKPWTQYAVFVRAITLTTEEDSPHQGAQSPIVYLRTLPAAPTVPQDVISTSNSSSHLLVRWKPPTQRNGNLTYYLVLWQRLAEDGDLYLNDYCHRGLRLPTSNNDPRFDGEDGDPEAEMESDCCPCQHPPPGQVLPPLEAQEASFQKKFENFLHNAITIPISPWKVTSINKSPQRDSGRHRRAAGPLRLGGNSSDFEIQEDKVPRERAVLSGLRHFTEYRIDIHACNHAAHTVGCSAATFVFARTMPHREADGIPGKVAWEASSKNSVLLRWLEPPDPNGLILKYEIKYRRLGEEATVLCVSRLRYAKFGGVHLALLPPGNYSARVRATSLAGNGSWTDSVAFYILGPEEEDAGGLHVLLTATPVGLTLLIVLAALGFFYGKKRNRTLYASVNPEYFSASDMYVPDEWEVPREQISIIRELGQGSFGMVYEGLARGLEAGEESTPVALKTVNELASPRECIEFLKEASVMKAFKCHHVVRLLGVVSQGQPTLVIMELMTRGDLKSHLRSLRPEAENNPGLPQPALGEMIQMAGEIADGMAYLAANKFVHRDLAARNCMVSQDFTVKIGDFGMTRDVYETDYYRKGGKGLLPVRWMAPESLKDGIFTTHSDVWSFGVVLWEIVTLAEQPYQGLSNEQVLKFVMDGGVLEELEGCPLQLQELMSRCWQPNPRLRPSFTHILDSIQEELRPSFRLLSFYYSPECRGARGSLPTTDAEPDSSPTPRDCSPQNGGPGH", "how_it_was_run": "as §1"}, "CHK1 (h)": {"target": "T6, CHK1 (h) (Homo sapiens, UniProt O14757)", "T6 construct": "purchased Millipore", "T6 sequence (O14757 1-476)": "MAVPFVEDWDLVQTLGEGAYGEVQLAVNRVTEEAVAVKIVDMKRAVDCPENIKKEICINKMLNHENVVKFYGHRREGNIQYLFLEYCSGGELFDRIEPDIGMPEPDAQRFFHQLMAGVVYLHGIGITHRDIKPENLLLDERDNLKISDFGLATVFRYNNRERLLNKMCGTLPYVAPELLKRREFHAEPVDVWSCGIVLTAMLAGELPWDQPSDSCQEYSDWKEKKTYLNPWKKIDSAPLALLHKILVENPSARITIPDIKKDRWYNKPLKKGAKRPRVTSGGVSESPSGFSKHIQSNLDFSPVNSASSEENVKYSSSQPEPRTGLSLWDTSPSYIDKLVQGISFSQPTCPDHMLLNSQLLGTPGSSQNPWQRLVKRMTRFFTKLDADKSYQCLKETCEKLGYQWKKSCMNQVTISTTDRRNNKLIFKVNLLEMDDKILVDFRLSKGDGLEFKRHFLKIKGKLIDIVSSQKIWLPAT", "how_it_was_run": "as §1"}, "Axl (h)": {"target": "Axl (h) (Homo sapiens, UniProt P30530)", "how_it_was_run": "as §1"}, "CDK3/cyclinE (h)": {"target": "T7, CDK3/cyclinE (h) (Homo sapiens, UniProt Q00526)", "T7 construct": "purchased Millipore", "how_it_was_run": "as §1"}, "Met (h)": {"target": "Met (h) (Homo sapiens, UniProt P08581)", "sequence (P08581 25-1390)": "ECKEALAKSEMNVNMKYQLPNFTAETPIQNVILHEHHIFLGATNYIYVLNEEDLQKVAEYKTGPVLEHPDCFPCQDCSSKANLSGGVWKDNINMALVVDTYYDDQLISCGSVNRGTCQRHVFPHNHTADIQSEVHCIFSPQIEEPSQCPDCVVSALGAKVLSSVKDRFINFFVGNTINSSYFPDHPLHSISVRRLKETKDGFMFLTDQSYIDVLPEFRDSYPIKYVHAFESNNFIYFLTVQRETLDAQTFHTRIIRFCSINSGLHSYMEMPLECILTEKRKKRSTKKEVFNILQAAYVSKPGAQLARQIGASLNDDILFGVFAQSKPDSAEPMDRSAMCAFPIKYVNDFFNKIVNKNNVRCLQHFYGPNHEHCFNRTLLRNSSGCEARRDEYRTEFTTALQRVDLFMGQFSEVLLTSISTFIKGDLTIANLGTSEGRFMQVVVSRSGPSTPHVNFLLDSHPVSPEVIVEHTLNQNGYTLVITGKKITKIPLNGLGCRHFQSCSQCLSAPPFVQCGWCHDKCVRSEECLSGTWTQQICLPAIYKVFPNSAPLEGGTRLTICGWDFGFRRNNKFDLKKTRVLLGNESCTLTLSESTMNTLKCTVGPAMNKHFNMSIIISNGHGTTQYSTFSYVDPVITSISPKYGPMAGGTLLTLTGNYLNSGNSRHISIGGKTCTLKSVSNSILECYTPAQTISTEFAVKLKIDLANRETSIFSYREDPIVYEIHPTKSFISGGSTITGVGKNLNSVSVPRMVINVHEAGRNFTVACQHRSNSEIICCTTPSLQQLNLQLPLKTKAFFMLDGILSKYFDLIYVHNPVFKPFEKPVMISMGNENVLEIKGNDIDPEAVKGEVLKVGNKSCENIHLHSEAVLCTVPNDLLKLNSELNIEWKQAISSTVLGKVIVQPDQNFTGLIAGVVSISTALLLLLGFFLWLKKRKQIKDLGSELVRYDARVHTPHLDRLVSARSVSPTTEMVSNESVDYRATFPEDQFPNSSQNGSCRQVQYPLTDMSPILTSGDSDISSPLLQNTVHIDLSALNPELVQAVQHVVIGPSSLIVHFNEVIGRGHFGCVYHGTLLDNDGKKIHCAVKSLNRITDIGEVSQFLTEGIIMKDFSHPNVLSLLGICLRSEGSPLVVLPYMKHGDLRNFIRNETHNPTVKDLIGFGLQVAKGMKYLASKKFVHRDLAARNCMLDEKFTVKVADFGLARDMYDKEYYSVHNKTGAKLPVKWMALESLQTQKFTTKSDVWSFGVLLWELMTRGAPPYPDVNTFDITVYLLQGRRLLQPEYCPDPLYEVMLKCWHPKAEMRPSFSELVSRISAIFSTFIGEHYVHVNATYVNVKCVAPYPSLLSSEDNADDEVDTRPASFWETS", "how_it_was_run": "as §1"}, "TSSK2 (h)": {"target": "T8, TSSK2 (h) (Homo sapiens, UniProt Q96PF2)", "T8 sequence (Q96PF2 1-358)": "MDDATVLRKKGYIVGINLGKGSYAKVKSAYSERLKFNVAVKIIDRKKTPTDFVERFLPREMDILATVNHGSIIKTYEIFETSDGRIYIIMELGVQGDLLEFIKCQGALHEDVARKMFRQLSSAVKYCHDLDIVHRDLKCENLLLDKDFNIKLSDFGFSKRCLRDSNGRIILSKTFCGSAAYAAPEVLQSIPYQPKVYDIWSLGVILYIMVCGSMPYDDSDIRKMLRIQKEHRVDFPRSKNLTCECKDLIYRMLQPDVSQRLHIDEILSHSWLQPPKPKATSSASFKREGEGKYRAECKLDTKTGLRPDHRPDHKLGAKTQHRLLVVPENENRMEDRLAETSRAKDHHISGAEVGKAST", "how_it_was_run": "as §1"}, "MAPK2 (h)": {"target": "MAPK2 (h) (Homo sapiens, UniProt P28482)", "sequence (P28482 whole entry)": "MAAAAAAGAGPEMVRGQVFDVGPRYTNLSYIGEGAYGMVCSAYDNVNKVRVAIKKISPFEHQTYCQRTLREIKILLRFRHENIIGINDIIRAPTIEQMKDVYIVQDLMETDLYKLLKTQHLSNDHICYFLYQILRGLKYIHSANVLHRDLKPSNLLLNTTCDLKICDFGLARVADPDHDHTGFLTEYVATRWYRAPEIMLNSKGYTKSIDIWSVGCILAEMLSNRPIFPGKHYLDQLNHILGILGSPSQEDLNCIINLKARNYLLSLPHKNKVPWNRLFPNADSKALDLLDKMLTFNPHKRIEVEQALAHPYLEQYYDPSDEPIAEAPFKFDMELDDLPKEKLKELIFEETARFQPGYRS", "how_it_was_run": "as §1"}, "EGFR(L858R) (h)": {"target": "T9, EGFR(L858R) (h) (Homo sapiens, UniProt P00533, L858R)", "T9 construct": "purchased Millipore", "how_it_was_run": "as §1"}},
  "data": [
    {"sequence": "FAKLAARLYRKALARQLGVAA [MMI-0300]", "values": [
      {"measurement": "% activity", "setting": "PKBβ (h)", "result": 84, "unit": "%"},
      {"measurement": "% activity", "setting": "SAPK2b (h)", "result": 81, "unit": "%"},
      {"measurement": "% activity", "setting": "CDK2/cyclinA (h)", "result": 86, "unit": "%"},
      {"measurement": "% activity", "setting": "AMPKα1 (h)", "result": 71, "unit": "%"},
      {"measurement": "% activity", "setting": "ULK3 (h)", "result": 167, "unit": "%"},
      {"measurement": "% activity", "setting": "PKBα (h)", "result": 57, "unit": "%"},
      {"measurement": "% activity", "setting": "IRR (h)", "result": 8, "unit": "%"},
      {"measurement": "% activity", "setting": "CHK1 (h)", "result": 91, "unit": "%"},
      {"measurement": "% activity", "setting": "Axl (h)", "result": 52, "unit": "%"},
      {"measurement": "% activity", "setting": "CDK3/cyclinE (h)", "result": 94, "unit": "%"},
      {"measurement": "% activity", "setting": "Met (h)", "result": 65, "unit": "%"},
      {"measurement": "% activity", "setting": "TSSK2 (h)", "result": 98, "unit": "%"},
      {"measurement": "% activity", "setting": "MAPK2 (h)", "result": 98, "unit": "%"}
    ]},
    {"sequence": "HRRIKAWLKKIKALARQLGVAA (Mammalian) [MMI-0500]", "values": [
      {"measurement": "% activity", "setting": "PKBβ (h)", "result": 21, "unit": "%"},
      {"measurement": "% activity", "setting": "SAPK2b (h)", "result": 42, "unit": "%"},
      {"measurement": "% activity", "setting": "CDK2/cyclinA (h)", "result": 87, "unit": "%"},
      {"measurement": "% activity", "setting": "AMPKα1 (h)", "result": 35, "unit": "%"},
      {"measurement": "% activity", "setting": "ULK3 (h)", "result": 177, "unit": "%"},
      {"measurement": "% activity", "setting": "PKBα (h)", "result": 30, "unit": "%"},
      {"measurement": "% activity", "setting": "IRR (h)", "result": 10, "unit": "%"},
      {"measurement": "% activity", "setting": "CHK1 (h)", "result": 65, "unit": "%"},
      {"measurement": "% activity", "setting": "Axl (h)", "result": 12, "unit": "%"},
      {"measurement": "% activity", "setting": "CDK3/cyclinE (h)", "result": 8, "unit": "%"},
      {"measurement": "% activity", "setting": "Met (h)", "result": 27, "unit": "%"},
      {"measurement": "% activity", "setting": "TSSK2 (h)", "result": 92, "unit": "%"},
      {"measurement": "% activity", "setting": "EGFR(L858R) (h)", "result": 26, "unit": "%"},
      {"measurement": "% activity", "setting": "MAPK2 (h)", "result": 60, "unit": "%"}
    ]},
    {"sequence": "YARAAARQARAKALNRQLGVA (Mammalian) [MMI-0200]", "values": [
      {"measurement": "% activity", "setting": "PKBβ (h)", "result": 250, "unit": "%"},
      {"measurement": "% activity", "setting": "SAPK2b (h)", "result": 95, "unit": "%"},
      {"measurement": "% activity", "setting": "AMPKα1 (h)", "result": 108, "unit": "%"},
      {"measurement": "% activity", "setting": "ULK3 (h)", "result": 164, "unit": "%"},
      {"measurement": "% activity", "setting": "PKBα (h)", "result": 110, "unit": "%"},
      {"measurement": "% activity", "setting": "IRR (h)", "result": 69, "unit": "%"},
      {"measurement": "% activity", "setting": "Axl (h)", "result": 99, "unit": "%"},
      {"measurement": "% activity", "setting": "Met (h)", "result": 71, "unit": "%"},
      {"measurement": "% activity", "setting": "TSSK2 (h)", "result": 91, "unit": "%"},
      {"measurement": "% activity", "setting": "EGFR(L858R) (h)", "result": 120, "unit": "%"}
    ]},
    {"sequence": "KAFAKLAARLYRKALARQLGVAA [MMI-0400]", "values": [
      {"measurement": "% activity", "setting": "PKBβ (h)", "result": 98, "unit": "%"},
      {"measurement": "% activity", "setting": "SAPK2b (h)", "result": 82, "unit": "%"},
      {"measurement": "% activity", "setting": "CDK2/cyclinA (h)", "result": 92, "unit": "%"},
      {"measurement": "% activity", "setting": "AMPKα1 (h)", "result": 87, "unit": "%"},
      {"measurement": "% activity", "setting": "ULK3 (h)", "result": 147, "unit": "%"},
      {"measurement": "% activity", "setting": "PKBα (h)", "result": 67, "unit": "%"},
      {"measurement": "% activity", "setting": "IRR (h)", "result": 8, "unit": "%"},
      {"measurement": "% activity", "setting": "CHK1 (h)", "result": 87, "unit": "%"},
      {"measurement": "% activity", "setting": "Axl (h)", "result": 41, "unit": "%"},
      {"measurement": "% activity", "setting": "CDK3/cyclinE (h)", "result": 92, "unit": "%"},
      {"measurement": "% activity", "setting": "Met (h)", "result": 62, "unit": "%"},
      {"measurement": "% activity", "setting": "TSSK2 (h)", "result": 94, "unit": "%"},
      {"measurement": "% activity", "setting": "EGFR(L858R) (h)", "result": 52, "unit": "%"},
      {"measurement": "% activity", "setting": "MAPK2 (h)", "result": 93, "unit": "%"}
    ]}
  ]
}
